The values that follow come from patent publication US20050159590A1.

Where only a bound is given, the exact number is not on record here.

In the test the target is IL-1 receptor (type I) on T24 cells (UniProt P14778). Put plainly: cell-based or functional assay.
UniProt P14778, sequence (P14778 18-569 limits assumed): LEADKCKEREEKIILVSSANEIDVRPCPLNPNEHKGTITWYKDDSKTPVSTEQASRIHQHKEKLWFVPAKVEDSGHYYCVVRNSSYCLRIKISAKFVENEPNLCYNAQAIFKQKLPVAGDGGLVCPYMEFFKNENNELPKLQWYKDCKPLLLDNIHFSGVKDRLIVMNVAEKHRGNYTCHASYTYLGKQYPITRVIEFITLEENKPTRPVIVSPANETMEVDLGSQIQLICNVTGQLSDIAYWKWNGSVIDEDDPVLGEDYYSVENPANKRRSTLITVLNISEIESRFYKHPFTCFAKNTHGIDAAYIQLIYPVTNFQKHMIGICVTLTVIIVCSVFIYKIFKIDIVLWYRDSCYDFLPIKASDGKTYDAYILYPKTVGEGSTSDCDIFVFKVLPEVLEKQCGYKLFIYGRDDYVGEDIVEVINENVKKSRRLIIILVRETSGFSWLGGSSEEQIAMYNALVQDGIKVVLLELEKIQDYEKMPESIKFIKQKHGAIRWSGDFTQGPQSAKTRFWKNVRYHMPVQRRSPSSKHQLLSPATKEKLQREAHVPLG

With “commercial IL-1Ra WT (obtained from Prospec Tany TechnoGene Ltd (Rehovot Israel)) (from UniProt P18510 26-177) (ligand)”, the inhibition of IL-1β-induced secretion of IL-8 from T24 cells, at 200 µg/ml is more than 70% and the inhibition of IL-1β-induced secretion of IL-8 from T24 cells, at 600 µg/ml or above is 100%.

In turn, “His-tagged IL-1Ra wild type (without signal peptide) from E. coli (from UniProt P18510 26-177) (ligand)” showed an inhibition of IL-1β-induced secretion of IL-8 from T24 cells, at 200 µg/ml of 70%; an inhibition of IL-1β-induced secretion of IL-8 from T24 cells, at 600 µg/ml of 50%; an inhibition of IL-1β-induced secretion of IL-8 from T24 cells, at 1800 µg/ml of 100%; an inhibition of IL-1β-induced secretion of IL-8 from T24 cells, at 8000 µg/ml of 100%.
